From the Human Domainome abundance scans (Beltran et al. 2025)
± gives the uncertainty stated by the source.

B1: Nucleosome-remodeling factor subunit BPTF, residues 2862 to 2918; numbered along this chain, Q12830 (parent)
chain: TKKDTKLYCICKTPYDESKFYIGCDRCQNWYHGRCVGILQSEAELIDEYVCPQCQST

Variants of: B1
Test: abundance fitness (aPCA) (normalised: wild type 0, dead -1); higher = more abundant; growth selection in yeast, the domain comes from the species named
Details: Homo sapiens
Variant TKKDTKLYCICKTPSDESKFYIGCDRCQNWYHGRCVGILQSEAELIDEYVCPQCQST has an abundance fitness of -0.539 ± 0.073.
With TKKDTKLYCICKTPKDESKFYIGCDRCQNWYHGRCVGILQSEAELIDEYVCPQCQST the abundance fitness was -0.131 ± 0.091.
TKKDTKLYCICKTPNDESKFYIGCDRCQNWYHGRCVGILQSEAELIDEYVCPQCQST showed an abundance fitness of -0.593 ± 0.2.
TKKDTKLYCICKTPPDESKFYIGCDRCQNWYHGRCVGILQSEAELIDEYVCPQCQST gave an abundance fitness of -0.313 ± 0.082.
Work on TKKDTKLYCICKTPTDESKFYIGCDRCQNWYHGRCVGILQSEAELIDEYVCPQCQST yielded an abundance fitness of -0.303 ± 0.075.
For TKKDTKLYCICKTPVDESKFYIGCDRCQNWYHGRCVGILQSEAELIDEYVCPQCQST, the abundance fitness was -0.275 ± 0.074.
Variant TKKDTKLYCICKTPWDESKFYIGCDRCQNWYHGRCVGILQSEAELIDEYVCPQCQST has an abundance fitness of -0.118 ± 0.094.
For TKKDTKLYCICKTPQDESKFYIGCDRCQNWYHGRCVGILQSEAELIDEYVCPQCQST, the abundance fitness was -0.665 ± 0.14.
Work on TKKDTKLYCICKTPMDESKFYIGCDRCQNWYHGRCVGILQSEAELIDEYVCPQCQST yielded an abundance fitness of -0.005 ± 0.073.
TKKDTKLYCICKTPYDEAKFYIGCDRCQNWYHGRCVGILQSEAELIDEYVCPQCQST showed an abundance fitness of -0.217 ± 0.14.
Work on TKKDTKLYCICKTPYDECKFYIGCDRCQNWYHGRCVGILQSEAELIDEYVCPQCQST yielded an abundance fitness of -0.366 ± 0.1.
Work on TKKDTKLYCICKTPYDQSKFYIGCDRCQNWYHGRCVGILQSEAELIDEYVCPQCQST yielded an abundance fitness of -0.074 ± 0.09.
Work on TKKDTKLYCICKTPYDGSKFYIGCDRCQNWYHGRCVGILQSEAELIDEYVCPQCQST yielded an abundance fitness of 0.055 ± 0.08.
For TKKDTKLYCICKTPYDNSKFYIGCDRCQNWYHGRCVGILQSEAELIDEYVCPQCQST, the abundance fitness was -0.172 ± 0.11.
For TKKDTKLYCICKTPYDPSKFYIGCDRCQNWYHGRCVGILQSEAELIDEYVCPQCQST, the abundance fitness was -0.153 ± 0.081.
TKKDTKLYCICKTPYDWSKFYIGCDRCQNWYHGRCVGILQSEAELIDEYVCPQCQST showed an abundance fitness of -0.412 ± 0.081.
With TKKDTKLYCICKTPYDSSKFYIGCDRCQNWYHGRCVGILQSEAELIDEYVCPQCQST the abundance fitness was -0.065 ± 0.078.
For TKKDTKLYCICKTPYDISKFYIGCDRCQNWYHGRCVGILQSEAELIDEYVCPQCQST, the abundance fitness was -0.155 ± 0.1.
Variant TKKDTKLYCICKTPYDMSKFYIGCDRCQNWYHGRCVGILQSEAELIDEYVCPQCQST has an abundance fitness of -0.131 ± 0.1.
In the case of TKKDTKLYCICKTPYDDSKFYIGCDRCQNWYHGRCVGILQSEAELIDEYVCPQCQST, the abundance fitness is reported as -0.013 ± 0.1.
In the case of TKKDTKLYCICKTPYDRSKFYIGCDRCQNWYHGRCVGILQSEAELIDEYVCPQCQST, the abundance fitness is reported as -0.304 ± 0.063.
For TKKDTKLYCICKTPYDCSKFYIGCDRCQNWYHGRCVGILQSEAELIDEYVCPQCQST, the abundance fitness was -0.288 ± 0.084.
For TKKDTKLYCICKTPYDLSKFYIGCDRCQNWYHGRCVGILQSEAELIDEYVCPQCQST, the abundance fitness was -0.172 ± 0.065.
In the case of TKKDTKLYCICKTPYDFSKFYIGCDRCQNWYHGRCVGILQSEAELIDEYVCPQCQST, the abundance fitness is reported as -0.052 ± 0.11.
For TKKDTKLYCICKTPYDTSKFYIGCDRCQNWYHGRCVGILQSEAELIDEYVCPQCQST, the abundance fitness was -0.2 ± 0.083.
With TKKDTKLYCICKTPYDVSKFYIGCDRCQNWYHGRCVGILQSEAELIDEYVCPQCQST the abundance fitness was -0.289 ± 0.068.
In the case of TKKDTKLYCICKTPYDKSKFYIGCDRCQNWYHGRCVGILQSEAELIDEYVCPQCQST, the abundance fitness is reported as -0.013 ± 0.099.
For TKKDTKLYCICKTPYDYSKFYIGCDRCQNWYHGRCVGILQSEAELIDEYVCPQCQST, the abundance fitness was -0.294 ± 0.12.
In the case of TKKDTKLYCICKTPYDASKFYIGCDRCQNWYHGRCVGILQSEAELIDEYVCPQCQST, the abundance fitness is reported as -0.042 ± 0.076.
TKKDTKLYCICKTPYDHSKFYIGCDRCQNWYHGRCVGILQSEAELIDEYVCPQCQST showed an abundance fitness of -0.168 ± 0.14.
TKKDTKLYCICKTPYGESKFYIGCDRCQNWYHGRCVGILQSEAELIDEYVCPQCQST gave an abundance fitness of -0.564 ± 0.1.
Work on TKKDTKLYCICKTPYWESKFYIGCDRCQNWYHGRCVGILQSEAELIDEYVCPQCQST yielded an abundance fitness of -0.778 ± 0.18.
TKKDTKLYCICKTPYAESKFYIGCDRCQNWYHGRCVGILQSEAELIDEYVCPQCQST gave an abundance fitness of -0.441 ± 0.067.
With TKKDTKLYCICKTPYRESKFYIGCDRCQNWYHGRCVGILQSEAELIDEYVCPQCQST the abundance fitness was -0.515 ± 0.077.
In the case of TKKDTKLYCICKTPYTESKFYIGCDRCQNWYHGRCVGILQSEAELIDEYVCPQCQST, the abundance fitness is reported as -0.366 ± 0.076.
Work on TKKDTKLYCICKTPYKESKFYIGCDRCQNWYHGRCVGILQSEAELIDEYVCPQCQST yielded an abundance fitness of -0.452 ± 0.11.
TKKDTKLYCICKTPYHESKFYIGCDRCQNWYHGRCVGILQSEAELIDEYVCPQCQST gave an abundance fitness of -0.55 ± 0.093.
Work on TKKDTKLYCICKTPYMESKFYIGCDRCQNWYHGRCVGILQSEAELIDEYVCPQCQST yielded an abundance fitness of -0.194 ± 0.11.
Work on TKKDTKLYCICKTPYQESKFYIGCDRCQNWYHGRCVGILQSEAELIDEYVCPQCQST yielded an abundance fitness of -0.182 ± 0.1.
Work on TKKDTKLYCICKTPYNESKFYIGCDRCQNWYHGRCVGILQSEAELIDEYVCPQCQST yielded an abundance fitness of -0.181 ± 0.12.
For TKKDTKLYCICKTPYIESKFYIGCDRCQNWYHGRCVGILQSEAELIDEYVCPQCQST, the abundance fitness was -0.624 ± 0.14.
In the case of TKKDTKLYCICKTPYYESKFYIGCDRCQNWYHGRCVGILQSEAELIDEYVCPQCQST, the abundance fitness is reported as -0.757 ± 0.13.
With TKKDTKLYCICKTPYPESKFYIGCDRCQNWYHGRCVGILQSEAELIDEYVCPQCQST the abundance fitness was -0.622 ± 0.1.
For TKKDTKLYCICKTPYLESKFYIGCDRCQNWYHGRCVGILQSEAELIDEYVCPQCQST, the abundance fitness was -0.555 ± 0.069.
In the case of TKKDTKLYCICKTPYVESKFYIGCDRCQNWYHGRCVGILQSEAELIDEYVCPQCQST, the abundance fitness is reported as -0.315 ± 0.064.
Variant TKKDTKLYCICKTPYSESKFYIGCDRCQNWYHGRCVGILQSEAELIDEYVCPQCQST has an abundance fitness of -0.362 ± 0.072.
TKKDTKLYCICKTPYCESKFYIGCDRCQNWYHGRCVGILQSEAELIDEYVCPQCQST showed an abundance fitness of -0.449 ± 0.14.
